Substitutions are numbered along the chain they refer to.
B1: 321 (protein)
chain: LDNGLARTPTMGWLHWERFMCNLDCQEEPDSCISEKLFMEMAELMVSEGWKDAGYEYLCIDDCWMAPQRDSEGRLQADPQRFPHGIRQLANYVHSKGLKFGIYADVGNKTCAGFPGSFGYYDIDAQTFADWGVDLLKFDGCYCDSLENLADGYKHMSLALNRTGRSIVYSCEWPLYMWPFQKPNYTEIRQYCNHWRNFADIDDSWASIKSILDWTSFNQEKIVDVAGPGGWNDPDMLVIGNFGLSWDQQVTQMALWAIMAAPLFMSNDLRHISPQAKALLQDKDVIAINQDPLGKQGYQLRQGDNFEVWERPLSGLAWAVAIINRQEIGGPRSYTIAVASLGGGVACNPACFITQLLPVKRKLGFYNWTSRLKSHINPTGTVLLQLENTMQMSLKDLL
modifications: Synthetic Polypeptide sequence of Variant No. 321 of mature Human GLA
B2: 327 (protein)
chain: B1 chain with L44R, F100L, F217R, K221R, Q302K, L316D, G343D, A350G, K362Q
modifications: Synthetic Polypeptide sequence of Variant No. 327 of mature Human GLA
B3: 331 (protein)
chain: B1 chain with L44R, F100L, I208V, G343D, I376V
modifications: Synthetic Polypeptide sequence of Variant No. 331 of mature Human GLA
B4: 332 (protein)
chain: B1 chain with L44R, F100L, I208V, K221T, D247N, Q302K, F365L, I376V
modifications: Synthetic Polypeptide sequence of Variant No. 332 of mature Human GLA
B5: 329 (protein)
chain: B1 chain with L44R, F100L, I208V, K221R, Q302K, G343D
modifications: Synthetic Polypeptide sequence of Variant No. 329 of mature Human GLA
B6: 322 (protein)
chain: B1 chain with K221T, D247N, Q302K, G343D
modifications: Synthetic Polypeptide sequence of Variant No. 322 of mature Human GLA
B7: 326 (protein)
chain: B1 chain with L44R, F100L, F217R, K221R, Q302K, L316D, A337P, G343K, K362Q
modifications: Synthetic Polypeptide sequence of Variant No. 326 of mature Human GLA
B8: 328 (protein)
chain: B1 chain with L44R, F100L, F217R, K221R, D247N, Q302K, A337P, G343K, A350G, T369S
modifications: Synthetic Polypeptide sequence of Variant No. 328 of mature Human GLA
B9: 323 (protein)
chain: B1 chain with L160I, D247N, I322V, G343K
modifications: Synthetic Polypeptide sequence of Variant No. 323 of mature Human GLA
B10: 330 (protein)
chain: B1 chain with L44R, F100L, I208V, D247N, G343D
modifications: Synthetic Polypeptide sequence of Variant No. 330 of mature Human GLA
B11: 324 (protein)
chain: B1 chain with L23S, F100L, K221R, D247N, G343K
modifications: Synthetic Polypeptide sequence of Variant No. 324 of mature Human GLA
B12: 333 (protein)
chain: B1 chain with L44R, F100L, K221R, D247N, L316D, A337P, G343K, A350G, T369S
modifications: Synthetic Polypeptide sequence of Variant No. 333 of mature Human GLA
B13: 325 (protein)
chain: B1 chain with L44R, F100L, F217R, K221R, L316D, A337P, K362Q
modifications: Synthetic Polypeptide sequence of Variant No. 325 of mature Human GLA

Tests used:
Format in all cases: biochemical
[1] = HTP-analysis of yeast culture supernatants, no challenge (MUGal hydrolysis); details: activity of the variant/activity of Rd3BB (SEQ ID NO: 13), yeast culture supernatant
Outline: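 GLA variants expressed in yeast INVSc1, secreted into SD-Ura broth over 66-84 h at 30° C; clarified supernatants tested without challenge. Supernatant mixed with McIlvaine buffer pH 4.8 and 2 mM MUGal (citrate/KCl, pH 4.6), 37° C for 30-180 min, carbonate-quenched, fluorescence Ex 355/Em 448 nm.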

[2] = HTP-analysis of supernatants pretreated with acid (MUGal hydrolysis); details: challenge at pH 4.0; activity of the variant/activity of Rd3BB (SEQ ID NO: 13); yeast culture supernatant
Outline: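 Fluorescence of MUGal hydrolysis (Ex. 355 nm, Em. 448 nm) is read after sodium carbonate quench. The enzyme source is INVSc1 yeast culture supernatant, first exposed to pH 3.3-4.3 McIlvaine buffer at 37° C. for 1-3 h, then reacted at pH 4.8 for 30-180 minutes.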

[3] = HTP-analysis of supernatants pretreated with bovine serum (MUGal hydrolysis); details: activity of the variant/activity of Rd3BB (SEQ ID NO: 13), yeast culture supernatant
Outline: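 Yeast INVSc1 culture supernatants containing secreted GLA variants were mixed with bovine serum (20:80) and held 1 h at 37° C. Serum-treated samples then reacted with MUGal (4 mM stock) in citrate/McIlvaine buffer (pH 4.3/4.8) for 180 min at 37° C., were quenched with sodium carbonate, and read by fluorescence (Ex 355, Em 448 nm).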

[4] = HTP-analysis of supernatants pretreated with base (MUGal hydrolysis); details: challenge at pH 8.2; activity of the variant/activity of Rd3BB (SEQ ID NO: 13); yeast culture supernatant
Outline: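 GLA variants secreted from yeast INVSc1; culture supernatants pre-incubated with McIlvaine buffer pH 7.0–8.2 or 200 mM bicarbonate pH 9.1–9.7 at 37° C. for 1–18 h. Residual activity: MUGal (4 mM stock) hydrolysis at pH 4.3–4.8, 37° C., 30–180 min, carbonate quench; fluorescence Ex 355/Em 448 nm.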

Row | Molecule | Relative Activity of GLA Variants After No Challenge (NC) [1] | Relative Activity of GLA Variants After Challenge at pH 4.0 [2] | Relative Activity of GLA Variants After Challenge with Serum [3] | Relative Activity of GLA Variants After Challenge at pH 8.2 [4]
1 | B1 | ++ (++ = >1.5 to 2.5 relative activity over Rd3BB (SEQ ID NO: 13)) | ++ (++ = >1.5 to 2.5 relative activity over Rd3BB (SEQ ID NO: 13)) | + (+ = 0.5 to 1.5 relative activity over Rd3BB (SEQ ID NO: 13)) | +++ (+++ = >2.5 relative activity over Rd3BB (SEQ ID NO: 13))
2 | B2 | ++ (++ = >1.5 to 2.5 relative activity over Rd3BB (SEQ ID NO: 13)) | +++ (+++ = >2.5 relative activity over Rd3BB (SEQ ID NO: 13)) | +++ (+++ = >2.5 relative activity over Rd3BB (SEQ ID NO: 13)) | +++ (+++ = >2.5 relative activity over Rd3BB (SEQ ID NO: 13))
3 | B3 | + (+ = 0.5 to 1.5 relative activity over Rd3BB (SEQ ID NO: 13)) | ++ (++ = >1.5 to 2.5 relative activity over Rd3BB (SEQ ID NO: 13)) | + (+ = 0.5 to 1.5 relative activity over Rd3BB (SEQ ID NO: 13)) | ++ (++ = >1.5 to 2.5 relative activity over Rd3BB (SEQ ID NO: 13))
4 | B4 | + (+ = 0.5 to 1.5 relative activity over Rd3BB (SEQ ID NO: 13)) | + (+ = 0.5 to 1.5 relative activity over Rd3BB (SEQ ID NO: 13)) | + (+ = 0.5 to 1.5 relative activity over Rd3BB (SEQ ID NO: 13)) | + (+ = 0.5 to 1.5 relative activity over Rd3BB (SEQ ID NO: 13))
5 | B5 | + (+ = 0.5 to 1.5 relative activity over Rd3BB (SEQ ID NO: 13)) | ++ (++ = >1.5 to 2.5 relative activity over Rd3BB (SEQ ID NO: 13)) | ++ (++ = >1.5 to 2.5 relative activity over Rd3BB (SEQ ID NO: 13)) | ++ (++ = >1.5 to 2.5 relative activity over Rd3BB (SEQ ID NO: 13))
6 | B6 | + (+ = 0.5 to 1.5 relative activity over Rd3BB (SEQ ID NO: 13)) | + (+ = 0.5 to 1.5 relative activity over Rd3BB (SEQ ID NO: 13)) | + (+ = 0.5 to 1.5 relative activity over Rd3BB (SEQ ID NO: 13)) | ++ (++ = >1.5 to 2.5 relative activity over Rd3BB (SEQ ID NO: 13))
7 | B7 | ++ (++ = >1.5 to 2.5 relative activity over Rd3BB (SEQ ID NO: 13)) | +++ (+++ = >2.5 relative activity over Rd3BB (SEQ ID NO: 13)) | +++ (+++ = >2.5 relative activity over Rd3BB (SEQ ID NO: 13)) | +++ (+++ = >2.5 relative activity over Rd3BB (SEQ ID NO: 13))
8 | B8 | + (+ = 0.5 to 1.5 relative activity over Rd3BB (SEQ ID NO: 13)) | + (+ = 0.5 to 1.5 relative activity over Rd3BB (SEQ ID NO: 13)) | + (+ = 0.5 to 1.5 relative activity over Rd3BB (SEQ ID NO: 13)) | + (+ = 0.5 to 1.5 relative activity over Rd3BB (SEQ ID NO: 13))
9 | B9 | − (− = <0.5 relative activity to Rd3BB (SEQ ID NO: 13)) | − (− = <0.5 relative activity to Rd3BB (SEQ ID NO: 13)) | + (+ = 0.5 to 1.5 relative activity over Rd3BB (SEQ ID NO: 13)) | − (− = <0.5 relative activity to Rd3BB (SEQ ID NO: 13))
10 | B10 | ++ (++ = >1.5 to 2.5 relative activity over Rd3BB (SEQ ID NO: 13)) | ++ (++ = >1.5 to 2.5 relative activity over Rd3BB (SEQ ID NO: 13)) | + (+ = 0.5 to 1.5 relative activity over Rd3BB (SEQ ID NO: 13)) | + (+ = 0.5 to 1.5 relative activity over Rd3BB (SEQ ID NO: 13))
11 | B11 | − (− = <0.5 relative activity to Rd3BB (SEQ ID NO: 13)) | − (− = <0.5 relative activity to Rd3BB (SEQ ID NO: 13)) | − (− = <0.5 relative activity to Rd3BB (SEQ ID NO: 13)) | − (− = <0.5 relative activity to Rd3BB (SEQ ID NO: 13))
12 | B12 | ++ (++ = >1.5 to 2.5 relative activity over Rd3BB (SEQ ID NO: 13)) | ++ (++ = >1.5 to 2.5 relative activity over Rd3BB (SEQ ID NO: 13)) | + (+ = 0.5 to 1.5 relative activity over Rd3BB (SEQ ID NO: 13)) | ++ (++ = >1.5 to 2.5 relative activity over Rd3BB (SEQ ID NO: 13))
13 | B13 | ++ (++ = >1.5 to 2.5 relative activity over Rd3BB (SEQ ID NO: 13)) | +++ (+++ = >2.5 relative activity over Rd3BB (SEQ ID NO: 13)) | +++ (+++ = >2.5 relative activity over Rd3BB (SEQ ID NO: 13)) | +++ (+++ = >2.5 relative activity over Rd3BB (SEQ ID NO: 13))

— US11278600B2, “Human alpha-galactosidase variants” (Codexis, Inc., priority 2014, dated 2022)
